Assay [1] addresses T1, Flp(Y343F) (S. cerevisiae (2-micron plasmid)) (UniProt P03870).
T1 sequence: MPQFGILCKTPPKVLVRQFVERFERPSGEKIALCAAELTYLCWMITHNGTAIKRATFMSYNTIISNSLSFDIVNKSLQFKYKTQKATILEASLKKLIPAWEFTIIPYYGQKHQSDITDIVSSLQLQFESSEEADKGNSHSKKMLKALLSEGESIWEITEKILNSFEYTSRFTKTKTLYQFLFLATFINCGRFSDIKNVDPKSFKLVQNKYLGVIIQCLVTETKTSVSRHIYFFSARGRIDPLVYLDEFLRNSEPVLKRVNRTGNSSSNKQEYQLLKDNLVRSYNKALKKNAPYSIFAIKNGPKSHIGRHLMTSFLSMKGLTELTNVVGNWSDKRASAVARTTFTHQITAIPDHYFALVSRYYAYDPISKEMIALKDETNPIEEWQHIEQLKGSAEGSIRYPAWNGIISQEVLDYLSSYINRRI

The target of assay [2] is Flp(Y343F)-SUMO (S. cerevisiae (2-micron plasmid) | not stated) (UniProt P03870).

In assay [1], “Flp(R191A)-SUMO (from UniProt P03870 1-423; Q12306 1-96) (enzyme)” yielded a strand cleavage complementation on separately pre-bound half-sites; cleavage yield against that of Flp(R191A) with Flp(Y343F) of 1.5 fold and a strand cleavage complementation on separately pre-bound half-sites; cleavage yield against that of Flp(R191A)-SUMO with Flp(Y343F)-SUMO of 1.5 fold. Moreover, in assay [2], the strand cleavage complementation on separately pre-bound half-sites; cleavage yield against that of Flp(R191A) with Flp(Y343F)-SUMO stood at 1.6 fold.

Values taken from article PMC6594588.
